Assay results: patent US20240317871A1 (IMMUNOMIC THERAPEUTICS, published 2024)
Changes are numbered by the printed parent chain.

T1: cynomolgus monkey HVEM (cynomolgus monkey, UniProt A0A2K5W0R1 39-203)
T1 sequence: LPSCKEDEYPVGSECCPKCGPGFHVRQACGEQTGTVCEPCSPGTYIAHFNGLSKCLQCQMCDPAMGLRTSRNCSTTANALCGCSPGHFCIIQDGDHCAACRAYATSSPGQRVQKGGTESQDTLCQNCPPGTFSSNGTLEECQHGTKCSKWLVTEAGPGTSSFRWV

T2: murine HVEM (murine, UniProt Q80WM9 39-206, limits assumed)
T2 construct: also called Mouse
T2 sequence (looked up): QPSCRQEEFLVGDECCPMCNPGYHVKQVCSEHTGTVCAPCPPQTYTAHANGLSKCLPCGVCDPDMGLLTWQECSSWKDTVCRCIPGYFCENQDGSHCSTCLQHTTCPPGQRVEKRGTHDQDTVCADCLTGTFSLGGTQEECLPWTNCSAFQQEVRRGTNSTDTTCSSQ

T3: human HVEM (human, UniProt Q92956 39-202, limits assumed)
T3 sequence (looked up): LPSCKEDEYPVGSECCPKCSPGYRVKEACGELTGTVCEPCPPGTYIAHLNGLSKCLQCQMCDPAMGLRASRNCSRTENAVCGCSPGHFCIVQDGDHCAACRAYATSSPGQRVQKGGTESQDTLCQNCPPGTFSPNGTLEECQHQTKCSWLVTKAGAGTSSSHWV

T4: His-tagged human HVEM (human, UniProt Q92956 39-202, limits assumed)
T4 construct: Analyte of the BLI assay, 200 nM in PBS; not shown: His tag
T4 sequence (looked up): T3 sequence (looked up)

B1: Ab_081 (H5S20-44A32A) (antibody, V domains shown)
VH: EVKLVESGGGLVQPGGSLKLSCAASGFTFSSYTMSWVRQTPEKRLEWVAYISNGGGSTYYPDTVKGRFTISRDNAKNTLYLQMSSLKSEDTAMYYCARHRGYGSSYNYAMDYWGQGTSVTVSS
VL: DIVMTQSQKFMSTSVGDRVSVTCKASQNVGTNVAWYQQKPGQSPKALIYSASYRYSGVPDRFTGSGSGTDFTLTISNVQSEDLAEYFCQQYNSYPFTFGSGTKLEIK
notes: also called Ab_81
B2: Ab_082 (H5S20-55A36A) (antibody, V domains shown)
VH: EVKLVESGGGLVQPGGSLKLSCAASGFTFSSYTMSWVRQTPEKRLEWVADISNGGGSTYYPDTVKGRFTISRDNAKNTLYLQMSSLKSEDTAMYYCARHRGYGNYVYAMDYWGQGTSVTVSS
VL: B1 VL with F96L, S100G
notes: also called Ab_82
B3: Ab_004 (H5S14-24A4A) (antibody, V domains shown)
VH: EVQLQQSGPELVKPGTSVKISCKTSGYTITEYTMHWVKQSHGKSLEWIGGINPNNGGTINNQKFKDKATLTVDMSSSTAYMELRSLTSEDSAVYYCAGSVVDRYWYFDVWGAGTTVTVSS
VL: QIVLTQSPAIMSASPGEKVTISCSASSSVSYMYWYQQKPGSSPKPWIYRTSNLASGVPARFSGSGSGTSYSLTISSMEAEDAATYYCQQYHSYPLTFGAGTKLELK
notes: also called Ab_4
B4: Ab_005 (H5S14-4A4A) (antibody, V domains shown)
VH: B3 VH with T16A, I29F, N54Y, D66G
VL: B3 VL
notes: also called Ab_5
B5: Ab_061 (H5S19-13A16B) (antibody, V domains shown)
VH: QIQLVQSGPELKKPGETVKISCKASGYTFTNFGVNWVKQAPGKGLKWMGWINTYTGEPTYADDFKGRFAFSLETSASTAYLRINNLKNEDTATYFCARSYYANYAYWGQGTTLTVSS
VL: QIVLTQSPAIMSASPGEKVTLTCSASSSVDSSYLYWYQQKPGSSPKLWIYGTSNLASGVPARFSGSGSGTSYSLTISSMEAEDAASYFCHQWNSYPWTFGGGTKLEIK
notes: also called Ab_61
B6: Ab_075 (H5S20-12A10A) (antibody, V domains shown)
VH: B5 VH with V34M, K38R, R82Q, E89D, T91M, Y100L, A102G, Y104R, A105D
VL: QIVLTQSPAIMSASLGEEITLTCSASSSVSYMHWYQQRSGTSPKLLIYSTSNLASGVPSRFSGSGSGTFYSLTISSVEAEDAADYYCHQWSSYRTFGGGTKLEIK
notes: also called Ab_75
B7: Ab_062 (H5S19-16A18A) (antibody, V domains shown)
VH: B5 VH with R82Q, A97V, A102G, Y104S, A105G
VL: B5 VL with A13T, D30S, G51S, N93S, S94T
notes: also called Ab_62
B8: Ab_060 (H5S19-8A16A) (antibody, V domains shown)
VH: B5 VH with T93S, Y104N
VL: B5 VL with Y37F
notes: also called Ab_60
B9: Ab_041 (H5S15-27A22A) (antibody, V domains shown)
VH: EVQLQQSGAELVKPGASVKLSCTASGFNIKDTYMHWVKQRPEQGLEWIGRIDPANGNTKYDPKFQGKATITADTSSNTAYLQLSSLTSEDTAVYYCARSRRYFDVWGAGTTVTVSS
VL: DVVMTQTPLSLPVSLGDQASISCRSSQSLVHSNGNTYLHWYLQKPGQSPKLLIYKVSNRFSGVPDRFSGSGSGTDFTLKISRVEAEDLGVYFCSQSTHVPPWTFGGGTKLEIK
notes: also called Ab_41
B10: Ab_076 (H5S20-26A22A) (antibody, V domains shown)
VH: QIQLVQSGPELKKPGETVKISCRASGYTFTNYGMNWVKQAPGKGLKWMGWINTYTGEPTYADDFKGRFAFSLETSASSAYLQINNLKNEDMATYFCARSLYYGDNYEAYWGQGTLVTVSA
VL: QIVLTQSPAIMSASLGEEITLTCSASSSVSYMHWYQQKSGSSPKLLIYTTSNLASGVPSRFSGSGSGTFYSLTISSVEAEDAADYYCHQWSSYTWTFGGGTKLEIK
notes: also called Ab_76
B11: Ab_047 (H5S15-36A32A) (antibody, V domains shown)
VH: EVQLQQSGAELVKPGASVKLSCTASGFNIKDTYMHWVKQRPEQGLEWIGRIDPANGNTKYDPKFQGKATITADTSSNTAYLQLSSLTSEDTAVYYCARPYGNYGFAYWGQGTLVTVSA
VL: DIQMTQSPASLSASVGETVTITCRASGNIHNYLAWYQQKQGKSPQLLVYNAKTLADGVPSRFSGSGSGTQYSLKINSLQPEDFGSYYCQHFWSTFTFGSGTKLEIK
notes: also called Ab_47
B12: Ab_048 (H5S19-24A22A) (antibody, V domains shown)
VH: QVQLQQSGGELLRPGTSVKVSCKASGYAFTNYLIEWVKQRPGQGLEWIGVINPGSGGIYYKEKFKDKAILTADKSSSTAYMQLSSLTSDDSAVYFCARGDAMDFWGQGTSVTVSS
VL: DAVMTQTPLSLTVSLGDQASISCRSSQTLENTNGNTYLNWYLQKPGQSPQLLIYRVSNRFSGVLDRFSGSGSGTDFTLKISRVEAEDLGVYFCLQVTHVPYTFGGGTKLEIK
notes: also called Ab_48
B13: Ab_053 (H5S19-20A20A) (antibody, V domains shown)
VH: QVQLKESGPGLVAPSQSLSITCTVSGFSLTSYGVHWVRQPPGKGLEWLGVIWAGGITNYNSALMSRLSISKDNSKSQVFLKMNSLQTDDTAMYYCARDWERDSSGPFVYWGQGTLVTVSA
VL: DIQMTQTTSSLSASLGDRVTISCTASQGISNYLNWYQQKPDGTVKLLIYYTSTLHSGVPSRFSGSGSGTDYSLTISNLEPEDIATYYCQQYFKLPWTFGGGTKLEIK
notes: also called Ab_53
B14: Ab_052 (H5S19-18A17B) (antibody, V domains shown)
VH: B13 VH with S31I, T57I, T87S, V108A
VL: B13 VL with T24S, T53S, S63R, F92S
notes: also called Ab_52
B15: Ab_042 (H5S15-28A23A) (antibody, V domains shown)
VH: QVQLQQSGAELVKPGASVKMSCKAFGYTFTTYPIEWMKQNHGKSLEWIGNFHPYNDDTKYNEKFKGKAKLTVEKSSSTVYLELSRLTSDDSAVYYCARGGFAYWGQGTLVTVSA
VL: DVVMTQTPLSLPVSLGDQASISCRSSQSLVHSNGNTYLHWYLQKPGQSPKLLIYKVSNRFSGVPDRFSGSGSGTDFTLKISRVEAEDLGVYFCSQSTHVPFTFGSGTKLEIK
notes: also called Ab_42
B16: Ab_085 (H5S20-53A41A) (antibody, V domains shown)
VH: EVQLVESGGGLVKPGGSLKLSCAASGFTFSSYAMSWVRQSPEKRLEWVAEISSGGSYTYYPDTVTGRFTISRDNAKNTLYLEMSSLRSEDTAMYYCAREGLRRDYYALDYWGQGTSVTVSS
VL: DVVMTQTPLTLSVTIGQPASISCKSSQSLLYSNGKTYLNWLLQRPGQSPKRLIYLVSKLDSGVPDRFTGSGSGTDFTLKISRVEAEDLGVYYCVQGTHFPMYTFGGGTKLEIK
notes: also called Ab_85

What follows are binders tested against T1, cynomolgus monkey HVEM (assay: ELISA).

| ELISA signal | Binder |
| --- | --- |
| 0.076 | B1 |
| 0.06 | B2 |
| 0.062 | B3 |
| 0.063 | B4 |
| 3.03 | B5 |
| 3.04 | B6 |
| 2.98 | B7 |
| 3.03 | B8 |
| 0.076 | B9 |
| 2.96 | B10 |
| 0.743 | B11 |
| 0.826 | B12 |
| 2.1 | B13 |
| 2.32 | B14 |
| 0.062 | B15 |
| 0.061 | B16 |

What follows are binders tested against T2, murine HVEM (assay: ELISA).

| ELISA signal | Binder |
| --- | --- |
| 0.048 | B1 |
| 0.044 | B2 |
| 0.044 | B3 |
| 0.048 | B4 |
| 0.043 | B5 |
| 0.048 | B6 |
| 0.045 | B7 |
| 0.044 | B8 |
| 0.045 | B9 |
| 0.044 | B10 |
| 0.051 | B11 |
| 0.044 | B12 |
| 0.042 | B13 |
| 0.042 | B14 |
| 0.046 | B15 |
| 0.046 | B16 |

What follows are binders tested against T3, human HVEM (assay: ELISA).

| ELISA signal | Binder |
| --- | --- |
| 1.59 | B1 |
| 0.844 | B2 |
| 2.42 | B3 |
| 2.44 | B4 |
| 2.98 | B5 |
| 3.04 | B6 |
| 2.95 | B7 |
| 3.09 | B8 |
| 0.059 | B9 |
| 2.89 | B10 |
| 1.19 | B11 |
| 2.5 | B12 |
| 2.89 | B13 |
| 2.88 | B14 |
| 0.049 | B15 |
| 0.049 | B16 |

Each binder was assayed against T4, His-tagged human HVEM (assay: BLI OctetRed96, mAb captured, 200 nM His-HVEM).
Procedure: Binding of antibodies to HVEM may also be determined by bio-layer interferometry (BLI) on an OctetRed96@ system (Sartorius). (See http://www.fortebio.com/bli_technology.html for general description of a BLI assay.) For this experiment, murine anti-human HVEM antibodies were captured from culture supernatant using anti-mouse IgG Fc capture and immobilized to dip and read biosensors. Sensors were then dipped into a solution of 200 nM His-tagged human HVEM in phosphate-buffered saline (PBS). Probes were dipped into PBS assay buffer and the dissociation rate (koff) was measured. The association rate (kₒₙ) and affinity (KD) were determined by curve fitting analysis.

| kon [M⁻¹ s⁻¹] | Kd [nM] | koff [s⁻¹] | Binder |
| --- | --- | --- | --- |
| 769 |  |  | B3 |
| 2240 |  |  | B4 |
| 42700 | 103 | 0.00439 | B13 |
| 80700 | 90.9 | 0.00734 | B14 |
